The assay concerns the target proteasome αΔ12-subunit (Thermoplasma acidophilum 20S proteasome α-subunit, first 12 residues removed) (Thermoplasma acidophilum, UniProt P25156 13-233). Nature of the assay: […].

proteasome αΔ12-subunit (Thermoplasma acidophilum 20S proteasome α-subunit, first 12 residues removed), sequence (P25156 13-233, stated change not applied): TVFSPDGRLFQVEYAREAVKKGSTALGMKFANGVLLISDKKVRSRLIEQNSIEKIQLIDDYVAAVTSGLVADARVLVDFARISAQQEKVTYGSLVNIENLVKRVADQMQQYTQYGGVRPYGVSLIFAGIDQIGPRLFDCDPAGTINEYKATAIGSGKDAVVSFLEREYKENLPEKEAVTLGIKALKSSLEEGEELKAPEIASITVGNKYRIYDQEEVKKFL

B1: proteasome β-subunit (Thermoplasma acidophilum 20S proteasome) (natural protein)
chain: TTTVGITLKDAVIMATERRVTMENFIMHKNGKKLFQIDTYTGMTIAGLVGDAQVLVRYMKAELELYRLQRRVNMPIEAVATLLSNMLNQVKYMPYMVQLLVGGIDTAPHVFSIDAAGGSVEDIYASTGSGSPFVYGVLESQYSEKMTVDEGVDLVIRAISAAKQRDSASGGMIDVAVITRKDGYVQLPTDQIESRIRKLGLIL
With B1, the binding result is “binds”.
